Measurements as given in article PMC4518712, “Regulation of the PI3K pathway through a p85α monomer–homodimer equilibrium” (eLife, 2015).
Where “and” joins values, the source holds several entries; their conditions need not be identical. Equal entries are not always repeated.

Legend:
class I PXXP peptide = conditions: cited from earlier work
[1] = target: GST-ΔSH3 p85α (residues 86–742, comprising PR1 to cSH2); experiment: ITC; MicroCal ITC200, 25°C, 10 mM sodium phosphate pH 7.5, 150 mM NaCl, 5 mM DTT; PR1 peptide injected into p85α SH3 (100 μM) in the cell, or SH3 (400 μM) in the syringe and GST-ΔSH3 p85α in the cell
Fyn SH3 (Homo sapiens) = Fyn SH3 (Homo sapiens) (UniProt P06241); conditions: cited from earlier work
[2] = target: p85α SH3-PR1-BH-PR2 fragment (residues 1–333) (UniProt P27986); experiment: AUC; sedimentation equilibrium, 20°C, samples at 1.0, 0.5 and 0.25 mg/ml, 11.8, 12.8, 13.8 krpm; global fit to a monomer–dimer–tetramer model (p85α, 1–333) or a monomer–dimer model (PR1-BH); constant of dimerization (dimer to monomers); reducing conditions
[3] = target: p85α SH3-PR1-BH-PR2 fragment (residues 1–333) (UniProt P27986); experiment: MST; Alexa647-labelled protein at 20 nM, the same protein unlabelled titrated from 50,000 nM in 1:1 dilutions; 20 mM sodium phosphate pH 8, 150 mM NaCl, 2 mM EDTA, 5 mM DTT; dimerization
p85α SH3 (residues 1–81) = target: T1, p85α SH3 (residues 1–81) (UniProt P27986 1-81); experiment: ITC; MicroCal ITC200, 25°C, 10 mM sodium phosphate pH 7.5, 150 mM NaCl, 5 mM DTT; PR1 peptide injected into p85α SH3 (100 μM) in the cell, or SH3 (400 μM) in the syringe and GST-ΔSH3 p85α in the cell; conditions: both partners purified
T1 construct: p85α residues 1–81; pET28b

[4] = target: the molecule itself; experiment: MST; Alexa647-labelled protein at 20 nM, the same protein unlabelled titrated from 50,000 nM in 1:1 dilutions; 20 mM sodium phosphate pH 8, 150 mM NaCl, 2 mM EDTA, 5 mM DTT; dimerization
[5] = target: the molecule itself; experiment: AUC; sedimentation equilibrium, 20°C, samples at 1.0, 0.5 and 0.25 mg/ml, 11.8, 12.8, 13.8 krpm; global fit to a monomer–dimer–tetramer model (p85α, 1–333) or a monomer–dimer model (PR1-BH); constant of dimerization (dimer to monomers); reducing conditions

T1 sequence (P27986 1-81): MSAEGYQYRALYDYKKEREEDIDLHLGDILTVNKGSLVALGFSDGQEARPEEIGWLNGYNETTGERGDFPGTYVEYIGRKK
Sequence of Fyn SH3 (Homo sapiens) (P06241 79-146): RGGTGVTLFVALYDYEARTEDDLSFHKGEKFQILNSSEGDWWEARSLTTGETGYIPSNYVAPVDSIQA

For p85α SH3 SH3 (from UniProt P27986), which Kd (class I PXXP peptide) is on record?
Its Kd is 40 µM.

Which Kd [1] does the source give for “p85α SH3 (residues 1–81) (from UniProt P27986 1-81) (domain or fragment)” here?
Its Kd is 16.8 µM.

What about the dH [1] of the same molecule?
Its dH is -13.4 kJ/mol.

What about the stoichiometry N [1] of the same molecule?
The stoichiometry N was 0.8.

For p85α PR1 PR1 (from UniProt P27986), which Kd (Fyn SH3 (Homo sapiens)) is on record?
Its Kd is 16 µM.

For “p85α SH3-PR1-BH-PR2 fragment (residues 1–333) (from UniProt P27986 1-333) (domain or fragment)”, which Kd [2] is on record?
The Kd was 530 nM.

And the Kd [3]?
Its Kd is 441 nM.

B1: synthetic p85α PR1 peptide PKPRPPRPLPVAP (peptide)
peptide: PKPRPPRPLPVAP
notes: p85α PR1 region, begins at P87; source: synthetic peptide
Which Kd (p85α SH3 (residues 1–81)) does the source give for B1 here?
Its Kd is 23.3 µM and 24 µM.

What about the dH (p85α SH3 (residues 1–81)) of the same molecule?
The dH was -4.9 kJ/mol.

And the “stoichiometry N” value (p85α SH3 (residues 1–81))?
Its value is 1.06.

B2: p85α PR1-BH (residues 79–301) (domain or fragment, UniProt P27986 79-301, looked up)
chain: RKKISPPTPKPRPPRPLPVAPGSSKTEADVEQQALTLPDLAEQFAPPDIAPPLLIKLVEAIEKKGLECSTLYRTQSSSNLAELRQLLDCDTPSVDLEMIDVHVLADAFKRYLLDLPNPVIPAAVYSEMISLAPEVQSSEEYIQLLKKLIRSPSIPHQYWLTLQYLLKHFFKLSQTSSKNLLNARVLSEIFSPMLFRFSAASSDNTENLIKVIEILISTEWNER
modifications: Alexa647 label on the labelled copy (MST only)
notes: p85α residues 79–301; pET28b
Which results are given for B2?
Kd [4]: 22.3 µM and 23 µM; Kd [5]: 163 µM
